Test results reported in the DeepSol protein solubility set.

Assay: soluble on expression in E. coli; label from the status in PepcDB or PDB records
In the case of “MGTPKPRILPWLVSQLDLGQLEGVAWVNKSRTRFRIPWKHGLRQDAQQEDFGIFQAWAEATGAYVPGRDKPDLPTWKRNFRSALNRKEGLRLAEDRSKDPHDPHKIYEFVNSGVGDFSQPDTS”, the “soluble on expression in E. coli” value is reported as “soluble”. In the case of “MGTQQKDVTIKSDAPDTLLLEKHADYIASYGSKKDDYEYCMSEYLRMSGVYWGLTVMDLMGQLHRMNKEEILVFIKSCQHECGGVSASIGHDPHLLYTLSAVQILTLYDSIHVINVDKVVAYVQSLQKEDGSFAGDIWGEIDTRFSFCAVATLALLGKLDAINVEKAIEFVLSCMNFDGGFGCRPGSESHAGQIYCCTGFLAITSQLHQVNSDLLGWWLCERQLPSGGLNGRPEKLPDVCYSWWVLASLKIIGRLHWIDREKLRSFILACQDEETGGFADRPGDMVDPFHTLFGIAGLSLLGEEQIKPVSPVFCMPEEVLQRVNVQPELVS”, the “soluble on expression in E. coli” value is reported as “soluble”. For “MGVLPKINIVARQFRKCSMAATSTSTSSSDNSVASTAFVQEHVRQMQNDIMVQLIPQDESGAVENLADLNVTSNLGRMTHYYFQQGGKMLRPTVSLLMGNACNSAANRSISEEYLAMLSTERSGIAAHLSVCQNQYKIGMIAEMIHTASLVHDDVIDEANTRRGSASVNAVWGNKMSVLVGDFILARATQILCSIGKPNIISVMASIIEDLVLGEFMQMSTTPTDATPVDRMKAYIEKTHRKTASLFASSCRSAAILADGSDLKLHEIAFEYGRNLGIAFQLADDLLDFIATADEMGKPVAADLKLGLATAPVLYACEQYPELNTMLLRKFKHDGDAEKAREIVVNSDGMDKTRRLIDSYSQKAVEMASSLPNRNESTEHLIKLAMSQSDRKF”, the “soluble on expression in E. coli” value was “not soluble”. In the case of “MGVRLAVRCFVVDGVLIDTGAKSMENEFTSFFQQQDIDQVVITHFHEDHTGCAAFLQRSMGLPIYMNEPMIEYCRQKADYPLYRKIFWGKRDPFAAKPIGATFSSRNATWDVIPTPGHAIDHVVFLNRETGQLFSGDLYCQEKTKVILREEDIPTIIASLQHVLTYDFGDVFCAHAGYLPLEHHHHHH”, the “soluble on expression in E. coli” value is reported as “not soluble”. In the case of “MGYIVDISKWNGNINWDVAAPQLDFVIARVQDGSNYIDPLYKSYVQAMKTRNIPFGNYAFCRFISIADAKKEAQDFWNRGDKSATVWVADVEVKTMDDMIAGTQAFIDELRRLGAKKVGLYVGHHMYGPFGMANVKSDFVWIPRYGGNKPAYPCDIWQYTETGNVPGIGKCDLNQLIGNKPLSWFTESVPKQENIQAQVSKQNIIQSGAFSPYETPDVMGALTSLKMTATFILQSDGLTYFVTEPTSDTQLNALKSWLDRKGWWYEVK”, the “soluble on expression in E. coli” value is reported as “not soluble”. With “MHAPLVSKDLDYISTANHDQPPRHLGSRFSAEGEFLPEPGNTVVCHLVEGSQTESAIVSTRQRFLDMPEASQLAFTPVSSLHMTVFQGVIESRRALPYWPQTLPLDTPIDAVTDYYRDRLSTFPTLPAFNMRVTGLRPVGMVMKGATAEDDSIVALWRDTFADFFGYRHPDHDTYEFHITLSYIVSWFEPECLPRWQAMLDEELEKLRVAAPVIQMRPPAFCEFKDMNHFKELVVFDKR” the “soluble on expression in E. coli” value was “soluble”. For “MHAVKPFPLCNLPLISLREVIDYLPTFDIFVLLHTSQKTKKLISSNIRDFVARQEHYKKQDISVRVVAERSYMEVIAISPKIRSTRFKRNDINQALEAAKYLVDHFKCDTDSVWLRITHRKEDETRQIITSVKEINLNITNLQFRHERISSDLFNWLLENCVQDVHIWVLEPQSITVSNWNVFEKVRKYNFQGINFSSHQANMLLKSLKSNNNFVQFRANDIENSLDLSVVFEDTGATAKMDTYRSVVFRPGLTVLKEYKPSKSRFVTENNNGGEMSICITEHAFSFQSN”, the “soluble on expression in E. coli” value was “not soluble”. For “MHEITLCQRALELIEQQAAKHGAKRVTGVWLKIGAFSCVETSSLAFCFDLVCRGSVAEGCKLHLEEQEAECWCETCQQYVTLLTQRVRRCPQCHGDMLQIVADDGLQIRRIEIDQE”, the “soluble on expression in E. coli” value was “soluble”. With “MHEVVTISVSQRANHLTTQFFNIQEGYLQLSKEQQVNDSKIFLNSVVDKVSKTISYAPRALLWDARTGNGSLGTYQYSESQDYHFGNEDKFKEQTVIKTHPRIPKSEYQSSLDAGAPLPCLNRENTMYWSDYSKLIYGPSSFNILRNWYHDTENPNQPDFQNLGERKFDRYSIGYDEFTENYLQEFFDGNLHRELEKCDTLQGFNLVSDMESGWGGFSSALLVELRNELPKKAVFSWGHNEDDPFTDDFPMKRLSKKWLPIISNKLRSTINMMQESDLYFPLYAAPGLTNWETAGKSCRIFDSINATISQSNLEQRKTMDYLTTAITLGYSSRNMVTGMVIGDTDYSFCSRVLPFKNSHKPNSTHIFSKSFIDRGNQTHKHHSEPDSRSKMIEMYTHRYFPSDTIPTEFSNDREFVLELESSEKNRDIFKHWNEFVVRYFKNDSDREELKNELSDYASAYESGWYEDEDSGDDDM” the “soluble on expression in E. coli” value was “not soluble”. With “MHGADIKAIVFDLDGTLYEETEHFDYYAERVAKRLREADRRRFWDDYRAVLADCHPLRIGSMYDAKEDLIVWLEEGAVRKAFRWSGEPLTKREIETVYKKPVAVDLDRFFSIGDLWWVSSSIGRHYGLTNEDTYAAFLETREWMMGPEFKMNGAPGLAETLVELHEKAALVLMTNSPEPDSEAILWKLRLADVFHHKIFQAAKPMKTAAHLEAIRARFGVDYRQMLCVGDNIGNDIAPARRLGCRTMLVDTYGLAKQGVADFIVASTSACVPVLRRLL” the “soluble on expression in E. coli” value was “not soluble”. With “MHHHHHHGSTSLYKKAGSETLYIQGMAEFPASLLILNGKSTDNLPLREAIMLLREEGMTIHVRVTWEKGDAARYVEEARKFGVATVIAGGGDGTINEVSTALIQCEGDDIPALGILPLGTANDFATSVGIPEALDKALKLAIAGDAIAIDMAQVNKQTCFINMATGGFGTRITTETPEKLKAALGSVSYIIHGLMRMDTLQPDRCEIRGENFHWQGDALVIGIGNGRQAGGGQQLCPNALINDGLLQLRIFTGDEILPALVSTLKSDEDNPNIIEGASSWFDIQAPHDITFNLDGEPLSGQNFHIEILPAALRCRLPPDCPLLRSTHHHHHH” the “soluble on expression in E. coli” value was “soluble”. For “MHHHHHHMSWNHQSVEIAVRRTTVPSPNLPPGFDFTDPAIYAERLPVAEFAELRSAAPIWWNGQDPGKGGGFHDGGFWAITKLNDVKEISRHSDVFSSYENGVIPRFKNDIAREDIEVQRFVMLNMDAPHHTRLRKIISRGFTPRAVGRLHDELQERAQKIAAEAAAAGSGDFVEQVSCELPLQAIAGLLGVPQEDRGKLFHWSNEMTGNEDPEYAHIDPKASSAELIGYAMKMAEEKAKNPADDIVTQLIQADIDGEKLSDDEFGFFVVMLAVAGNETTRNSITQGMMAFAEHPDQWELYKKVRPETAADEIVRWATPVTAFQRTALRDYELSGVQIKKGQRVVMFYRSANFDEEVFQDPFTFNILRNPNPHVGFGGTGAHYCIGANLARMTINLIFNAVADHMPDLKPISAPERLRSGWLNGIKHWQVDYTGRCPVAH”, the “soluble on expression in E. coli” value was “soluble”. In the case of “MHHHHHHSSGRENLYFQGGSLLELQKKYHLKGAIGQGSYGVVRVAIENQTRAIRAIKIMNKNKIRQINPKDVERIKTEVRLMKKLHHPNIARLYEVYEDEQYICLVMELCHGGHLLDKLNVFIDDSTGKCAMDVVKTQICPCPECNEEAINGSIHGFRESLDFVQREKLISNIMRQIFSALHYLHNQGICHRDIKPENFLFSTNKSFEIKLVDFGLSKEFYKLNNGEYYGMTTKAGTPYFVAPEVLNTTNESYGPKCDAWSAGVLLHLLLMGAVPFPGVNDADTISQVLNKKLCFENPNYNVLSPLARDLLSNLLNRNVDERFDAMRALQHPWISQFSDKIYKMS”, the “soluble on expression in E. coli” value is reported as “soluble”. In the case of “MHHHHHHSSGVDLGTENLYFQSNAMKNIEKLEQSLTYEFKDKNLLIHALTHKSFKKSYNNERLEFLGDAVLDLVVGEYLFHKFAKDAEGDLSKLRAALVNEKSFAKIANSLNLGDFILMSVAEENNGGKEKPSILSDALEAIIGAIHLEAGFEFAKTIALRLIEKNFPQIDAKILIKDYKTKLQEITQGKIGQTPQYETVRAFGPDHLKQFEIALMLDGKELARAIAGSKKEAQQMAAKIALEKLGAL”, the “soluble on expression in E. coli” value is reported as “soluble”. In the case of “MHHHHHHSSGVDLGTENLYFQSNAMNFKLNNTLSNEINTLIIGIPEHLNQLERISFNHIDITESLERLKHQHIIGSKVGKIYTTAFDVQDQTYRLITVGLGNLKTRSYQDMLKIWGHLFQYIKSEHIEDTYLLMDSFISKYDQLSDVLMACGIQSERATYEFDHYKSSKKAPFKTNLNLISESLIELDFIHEGISIGQSINLARDFSNMPPNVLTPQTFAEDIVNHFKNTKVKVDVKDYDTLVSEGFGLLQAVGKGSKHKPRLVTITYNGKDKDEAPIALVGKGITYDSGGYSIKTKNGMATMKFDMCGAANVVGIIEAASRLQLPVNIVGVLACAENMINEASMKPDDVFTALSGETVEVMNTDAEGRLVLADAVFYANQYQPSVIMDFATLTGAAIVALGDDKAAAFESNSKVILNDILQISSEVDEMVFELPITATERASIKHSDIADLVNHTNGQGKALFAASFVTHFSGQTPHIHFDIAGPATTNKASYNGPKGPTGFMIPTIVQWLKQQ”, the “soluble on expression in E. coli” value is reported as “soluble”. For “MHIADMTMFYAPASGGVRTYLEAKHRHLWHYPGIRHSVLVPGASYRQANGIHEVPAPPLPFGNGYRFPLRRGPWRKVLRNLQPDLIEVGDPYLTAWAALDARRRLDVPVIGFYHSDLPLLVSNRMGAWLGTNADNYVSKLYGHFDRVLAPSRVMAEKLMRLGVADVHVQPLGVDLVTFHPSNRDPGLRQELGLDEETRLLVFAGRGSREKNLPVLLDAIQRLGDGYHLLLVGSNMPTRVPRNTSVVDHFCDSREVARLLASSDALLHAGDQETFGLVALEAMASGIPVVAVRAGALAEIVPERCGVLCAPNNGDAMACAVRELFSHDVELRGQRARRHVERQHAWDAVVAGLLLHYHAVLGDSEARFPRYGLEHHHHHH”, the “soluble on expression in E. coli” value was “not soluble”. In the case of “MHIDNVVFMKKVLDASAFINGYVPEGRENYTVRSVTEEIRDFRSMMILEDALREGRLKITEPDPESMKVVEDAISESGDIMRLSPTDMEVIGLAVSLRGKDDVTVITDDYTIQNTLKILGIGFRSVLTSGIRDTYSWRRVCTGCRRVYPLDYEFEECEICGSRIVRKRHRNLEHHHHHH”, the “soluble on expression in E. coli” value is reported as “soluble”. With “MHIKIDDLTGRQVVSLVNEHLHSMTLMSPPESIHALGLEKLRGPEITFWSAWEGDELAGCGALKELDTRHGEIKSMRTSASHLRKGVAKQVLQHIIEEAEKRGYERLSLETGSMASFEPARKLYESFGFQYCEPFADYGEDPNSVFMTKKLLEHHHHHH” the “soluble on expression in E. coli” value was “soluble”. In the case of “MHILVTGAAGFIGSHTVLELLNSGYTVLCIDNFANAISDEHGNAISLKRVAQLTGKDVPFQNVDVCDEAALEKVFSENKFDGIIHLAALKAVGESVAKPLQYYSNNLVASLNLIQMCLKYNVKNFVFSSSATVYGPPSELPITEKSQTGQGITNPYGQTKYMMEQILIDVGKANPEWNVVLLRYFNPVGAHKSGLIGEDPKGVPNNLMPYVSQVAIGKLPVLTIYGDQFDTVDGTGVRDYIHVVDLAKGHVKAFDRIKTVGNIGTEIYNLGTGVGYSVRQMVDALKKVSGRDIPVKIGVPRPGDVASVYCDPSLAQEKLGWRAETGLEEMCADLWNWQTKNPQGFSA”, the “soluble on expression in E. coli” value is reported as “not soluble”. In the case of “MHILVTGFAPFDNQNINPSWEAVTQLEDIIGTHTIDKLKLPTSFKKVDNIINKTLASNHYDVVLAIGQAGGRNAITPERVAINIDDARIPDNDDFQPIDQAIHLDGAPAYFSNLPVKAMTQSIINQGLPGALSNSAGTFVCNHTLYHLGYLQDKHYPHLRFGFIHVPYIPEQVIGKPDTPSMPLEKIVAGLTAAIEAISNDEDLHLALGTTE”, the “soluble on expression in E. coli” value is reported as “not soluble”. With “MHKDTHCAVVIDCWMNKLGEVNFENRPSRYPAFVEDVRKICGTKEIVFGLEDTRGFGRNLAAYLVGRKFEVKHVNPAYTSAVRLANPIIYKDDSYDAYCVARVLRDMVDTLKDAKHEDIFWTIRQMVKRRDLIVKSNVMNKNQLHSQLAYSYPSYRKFFAMIDSKSALCFWENYPSPEYIWNTIPEEIYQTIKPVHQALKIQRIHEIISMIERDGDTRKDYQPERDFIVRNIVKDIRHNKELIAEIDDELRKLIPLTGYKLHTMPGIDLVTEAQIISEIGDINRFPDSDKLARFMGLAPVQFSSAGKGKDQRCRNGNRALNAIFHFLAIQMVAVSASGKPRHPVFREYFEQKVKEGKNKPQALVCVARRLVRIIYGMMKTRTEYRPYEKVDDKN” the “soluble on expression in E. coli” value was “soluble”.
